# Test results reported in FireProtDB (doi:10.1021/bi034520t).
# Conditions: Saccharolobus solfataricus (strain ATCC 35092 / DSM 1617 / JCM 11322 / P2), Thermal, CD, phosphate 10 mM, reversible: yes, whole UniProt chain shown
protein,measurement,setting,value
"DNA-binding protein 7d wild type, P39476 (protein) MATVKFKYKGEEKEVDISKIKKVWRVGKMISFTYDEGGGKTGRGAVSEKDAPKELLQMLEKQKK",Tm,pH 3,80 °C
same,unfolding enthalpy (van 't Hoff),pH 3,50.2 kcal/mol
same,Tm,pH 4,95 °C
same,unfolding enthalpy (van 't Hoff),pH 4,57.4 kcal/mol
same,Tm,pH 5,98.5 °C
same,unfolding enthalpy (van 't Hoff),pH 5,62.1 kcal/mol
same,Tm,pH 6,99 °C
same,unfolding enthalpy (van 't Hoff),pH 6,64.5 kcal/mol
same,Tm,pH 7,98 °C
same,unfolding enthalpy (van 't Hoff),pH 7,64.5 kcal/mol
same,Tm,pH 8,97.5 °C
same,unfolding enthalpy (van 't Hoff),pH 8,62.1 kcal/mol
same,Tm,pH 9,97 °C
same,unfolding enthalpy (van 't Hoff),pH 9,59.8 kcal/mol
